Legend:
Assay in all cases: holdup assay
Parameters in all cases: key: below the threshold = too weak to quantify, mostly under pKd 3.1 to 4
Conditions in all cases: plain residues with an end cap or a label only (N-terminal biotin on a linker: ado-ado)
[1] = target: GOPC, Q9HD26
[2] = target: MAGI3_2, Q5TCQ9
[3] = target: T1, MPP6, Q9NZW5
T1 sequence (Q9NZW5 125-219, limits assumed, looked up): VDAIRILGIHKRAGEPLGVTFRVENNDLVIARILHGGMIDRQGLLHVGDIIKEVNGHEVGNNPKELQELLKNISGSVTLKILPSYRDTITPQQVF

[4] = target: DLG4_3, P78352
[5] = target: T2, RADIL, Q96JH8
T2 sequence (Q96JH8 971-1071, limits assumed, looked up): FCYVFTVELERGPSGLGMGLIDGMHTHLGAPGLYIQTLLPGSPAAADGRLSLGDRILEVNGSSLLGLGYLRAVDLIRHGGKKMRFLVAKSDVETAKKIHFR

[6] = target: PDLIM1, O00151
[7] = target: TJP1_2, Q07157
[8] = target: T3, ARHGEF11, O15085
T3 sequence (O15085 42-136, limits assumed, looked up): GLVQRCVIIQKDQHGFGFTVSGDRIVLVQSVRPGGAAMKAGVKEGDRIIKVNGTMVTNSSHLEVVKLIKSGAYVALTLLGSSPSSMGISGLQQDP

[9] = target: DLG1_1, Q12959
[10] = target: GORASP2, Q9H8Y8
[11] = target: T4, DLG3_2, Q92796
T4 sequence (Q92796 221-321, limits assumed, looked up): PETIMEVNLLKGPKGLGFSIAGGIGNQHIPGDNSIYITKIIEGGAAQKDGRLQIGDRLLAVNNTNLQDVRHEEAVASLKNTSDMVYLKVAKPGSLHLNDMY

[12] = target: FRMPD3, Q5JV73
[13] = target: SCRIB_3, Q14160
[14] = target: T5, GRIP1_5, Q9Y3R0
T5 sequence (Q9Y3R0 568-668, limits assumed, looked up): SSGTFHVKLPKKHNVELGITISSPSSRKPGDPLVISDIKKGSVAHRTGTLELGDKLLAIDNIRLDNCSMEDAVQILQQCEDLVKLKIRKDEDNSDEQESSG

[15] = target: MAGI1_2, Q96QZ7
[16] = target: T6, SHANK1, Q9Y566
T6 sequence (Q9Y566 658-767, limits assumed, looked up): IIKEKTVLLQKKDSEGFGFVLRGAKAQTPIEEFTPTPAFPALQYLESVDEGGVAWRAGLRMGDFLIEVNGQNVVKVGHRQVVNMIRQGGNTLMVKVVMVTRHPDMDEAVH

[17] = target: T7, DLG3_1, Q92796
T7 sequence (Q92796 125-227, limits assumed, looked up): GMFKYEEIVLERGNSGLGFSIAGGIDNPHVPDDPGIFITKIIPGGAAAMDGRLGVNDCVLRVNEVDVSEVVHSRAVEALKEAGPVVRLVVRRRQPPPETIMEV

[18] = target: T8, SIPA1L2, Q9P2F8
T8 sequence (Q9P2F8 945-1036, limits assumed, looked up): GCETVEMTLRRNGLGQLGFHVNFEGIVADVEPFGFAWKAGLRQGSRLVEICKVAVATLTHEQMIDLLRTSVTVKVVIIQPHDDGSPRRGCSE

[19] = target: SCRIB_2, Q14160
[20] = target: TJP2_1, Q9UDY2
[21] = target: MAGI2_2, Q86UL8
[22] = target: IL16_1, Q14005
[23] = target: DLG1_3, Q12959
[24] = target: LDB3, O75112
[25] = target: DLG4_2, P78352
[26] = target: T9, LIN7A, O14910
T9 sequence (O14910 103-200, limits assumed, looked up): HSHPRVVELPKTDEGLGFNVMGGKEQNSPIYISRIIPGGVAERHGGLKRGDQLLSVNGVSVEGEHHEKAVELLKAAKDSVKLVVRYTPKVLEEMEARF

[27] = target: AHNAK1, Q09666
[28] = target: GRASP, Q7Z6J2
Chain of GRASP, Q7Z6J2 (Q7Z6J2 96-193): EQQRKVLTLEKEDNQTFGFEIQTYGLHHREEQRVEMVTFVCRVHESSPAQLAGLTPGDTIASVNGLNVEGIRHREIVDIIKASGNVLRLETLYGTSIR

Chain of MAGI3_2, Q5TCQ9 (Q5TCQ9 398-503): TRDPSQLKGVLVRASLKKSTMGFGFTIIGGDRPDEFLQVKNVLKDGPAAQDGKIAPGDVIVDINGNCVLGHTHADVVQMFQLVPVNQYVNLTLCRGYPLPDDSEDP
Chain of PDLIM1, O00151 (O00151 1-87): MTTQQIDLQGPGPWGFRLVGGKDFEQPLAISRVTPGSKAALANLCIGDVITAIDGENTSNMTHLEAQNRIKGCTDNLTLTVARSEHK
Chain of TJP1_2, Q07157 (Q07157 181-274): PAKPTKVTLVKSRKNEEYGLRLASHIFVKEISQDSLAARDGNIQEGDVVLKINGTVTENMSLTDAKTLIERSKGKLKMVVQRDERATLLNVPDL
Chain of SCRIB_3, Q14160 (Q14160 999-1103): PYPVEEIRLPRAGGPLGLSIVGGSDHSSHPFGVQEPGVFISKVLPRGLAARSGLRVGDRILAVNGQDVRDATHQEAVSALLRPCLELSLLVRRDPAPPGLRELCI
Chain of AHNAK1, Q09666 (Q09666 4-100): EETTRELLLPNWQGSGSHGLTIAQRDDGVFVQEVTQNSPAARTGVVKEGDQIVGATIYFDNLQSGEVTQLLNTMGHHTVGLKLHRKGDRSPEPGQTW
Chain of DLG4_3, P78352 (P78352 306-403): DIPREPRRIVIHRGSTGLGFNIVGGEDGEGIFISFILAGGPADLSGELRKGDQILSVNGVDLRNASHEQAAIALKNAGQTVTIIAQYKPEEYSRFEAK
Chain of LDB3, O75112 (O75112 1-94): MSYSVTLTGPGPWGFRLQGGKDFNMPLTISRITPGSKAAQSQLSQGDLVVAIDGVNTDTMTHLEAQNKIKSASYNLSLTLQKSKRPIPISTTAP
Chain of MAGI2_2, Q86UL8 (Q86UL8 410-522): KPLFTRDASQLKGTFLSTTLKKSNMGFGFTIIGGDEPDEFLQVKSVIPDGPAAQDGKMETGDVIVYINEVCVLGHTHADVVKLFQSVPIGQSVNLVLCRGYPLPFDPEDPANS
Chain of MAGI1_2, Q96QZ7 (Q96QZ7 456-580): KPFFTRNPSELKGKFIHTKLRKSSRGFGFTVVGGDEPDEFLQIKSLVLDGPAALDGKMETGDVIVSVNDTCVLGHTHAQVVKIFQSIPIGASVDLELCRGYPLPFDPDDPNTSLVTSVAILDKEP
Chain of SCRIB_2, Q14160 (Q14160 857-960): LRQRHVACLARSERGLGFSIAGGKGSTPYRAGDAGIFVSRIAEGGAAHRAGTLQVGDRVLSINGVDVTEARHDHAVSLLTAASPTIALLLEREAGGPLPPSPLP
Chain of DLG4_2, P78352 (P78352 155-259): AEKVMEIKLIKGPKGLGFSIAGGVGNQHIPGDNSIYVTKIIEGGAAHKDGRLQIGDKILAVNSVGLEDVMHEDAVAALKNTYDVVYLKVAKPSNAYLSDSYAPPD
Chain of IL16_1, Q14005 (Q14005 210-306): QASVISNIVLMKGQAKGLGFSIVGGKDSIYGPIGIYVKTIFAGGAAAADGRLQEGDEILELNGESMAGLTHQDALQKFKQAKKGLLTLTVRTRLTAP
Chain of FRMPD3, Q5JV73 (Q5JV73 12-100): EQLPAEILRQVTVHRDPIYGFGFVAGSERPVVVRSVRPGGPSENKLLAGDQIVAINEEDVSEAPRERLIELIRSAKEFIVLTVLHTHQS
Chain of TJP2_1, Q9UDY2 (Q9UDY2 24-128): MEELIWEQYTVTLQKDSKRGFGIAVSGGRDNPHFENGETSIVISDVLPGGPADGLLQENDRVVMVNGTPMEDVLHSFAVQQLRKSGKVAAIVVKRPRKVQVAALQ

B1: OR10G3, Q8NGC4 (peptide)
chain: LRSPRTPSEV
pKd [1]: below the threshold | pKd [2]: 4.4 | pKd [3]: below the threshold | pKd [4]: below the threshold | pKd [5]: below the threshold | pKd [6]: below the threshold | pKd [7]: 3.62 | pKd [8]: below the threshold | pKd [9]: below the threshold | pKd [10]: below the threshold | pKd [11]: 3.65 | pKd [12]: below the threshold | pKd [13]: 3.61 | pKd [14]: below the threshold | pKd [15]: 3.92 | pKd [16]: below the threshold | pKd [17]: below the threshold | pKd [18]: below the threshold | pKd [19]: 3.6 | pKd [20]: below the threshold | pKd [21]: 4.27 | pKd [22]: below the threshold | pKd [23]: below the threshold | pKd [24]: below the threshold | pKd [25]: 3.88 | pKd [26]: below the threshold | pKd [27]: below the threshold | pKd [28]: below the threshold
